Measured values from the supplement of paper PMC10126150.
± gives the standard deviation of the averaged measurements.

system: ATP; assay: switch fluorescence ratio, 500 uM ATP over buffer (Cy3 cluster intensity, sum of 5 cycles each) (fold (ratio)); higher = stronger signal-on switching upon ATP binding; sequences stand for … in TCGTCGGCAGCGTCAGATGTGTATAAGAGACAGTTTTTTTTTTTTTTTTTTTTTTTTT…TC; settings: aptamer strand: ATP DNA aptamer (quencher-CACCTGGGGGAGTATTGCGGAGGAAGG + anchor), 100 nM annealed; ATP concentration: 500 uM
Procedure, shortened: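 For every switch-domain sequence, the fluorescence ratio is the mean of per-cluster values, each being summed target-cycle Cy3 intensity over summed buffer-cycle Cy3 intensity. Clusters outside 100-1000 RFU were excluded. On a modified Illumina MiSeq flow-cell, the Cy3-labelled switching-strand clusters were annealed to 100 nM quencher-labelled ATP aptamer, imaged in selection buffer and then after 15 min with 500 uM ATP at 22 °C. Five such cycles were run, with NaOH stripping and re-annealing between them.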
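Also: ATP exposure 15 min at 22 °C before imaging.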

| Sequence | switch fluorescence ratio |
| --- | --- |
| ATTTATACTG | 1.05 ± 0.052 |
| ATTTATCCAA | 1 ± 0.039 |
| ATTTATCCAC | 1.01 ± 0.046 |
| ATTTATCCTC | 1.05 ± 0.029 |
| ATTTATCGCA | 1.011 ± 0.0041 |
| ATTTATCTGA | 0.99 ± 0.016 |
| ATTTATGAAA | 1.04 ± 0.054 |
| ATTTATGAG | 0.977 ± 0.036 |
| ATTTATGGGT | 0.987 ± 0.029 |
| ATTTATGTGT | 1.01 ± 0.057 |
| ATTTATTTAG | 0.987 ± 0.022 |
| ATTTCACTCG | 1.01 ± 0.036 |
| ATTTCATCGT | 1.03 ± 0.012 |
| ATTTCCTTTG | 1.021 ± 0.006 |
| ATTTCGGA | 0.975 ± 0.034 |
| ATTTCGGTGC | 1.1 ± 0.17 |
| ATTTCGGTTG | 0.989 ± 0.026 |
| ATTTCGTCGT | 1.01 ± 0.03 |
| ATTTCGTTGC | 1.06 ± 0.058 |
| ATTTCTAATT | 1.07 ± 0.15 |
| ATTTCTATTT | 1.01 ± 0.059 |
| ATTTCTTTTG | 1.02 ± 0.056 |
| ATTTGAAAGT | 1.02 ± 0.011 |
| ATTTGACGGT | 1.07 ± 0.11 |
| ATTTGACGTT | 1.003 ± 0.006 |

| Sequence | switch fluorescence ratio |
| --- | --- |
| ATTTGAGGGT | 0.986 ± 0.021 |
| ATTTGAGTAT | 1.004 ± 0.0093 |
| ATTTGATGGG | 0.977 ± 0.03 |
| ATTTGCCGAC | 0.975 ± 0.019 |
| ATTTGCGGAG | 1.002 ± 0.0057 |
| ATTTGGCCGG | 1.01 ± 0.04 |
| ATTTGGCGCT | 0.994 ± 0.059 |
| ATTTGGCTGT | 0.997 ± 0.023 |
| ATTTGGGCCT | 1.02 ± 0.032 |
| ATTTGGGCTC | 0.98 ± 0.029 |
| ATTTGGGGAA | 0.976 ± 0.021 |
| ATTTGGGGTA | 1.01 ± 0.024 |
| ATTTGGGGTG | 1.016 ± 0.0069 |
| ATTTGGGT | 0.999 ± 0.021 |
| ATTTGGTACC | 0.977 ± 0.043 |
| ATTTGGTATT | 0.992 ± 0.041 |
| ATTTGGTTGT | 0.958 ± 0.021 |
| ATTTGTCCGG | 1.007 ± 0.0081 |
| ATTTGTTGGA | 0.989 ± 0.04 |
| ATTTTAAAAT | 0.977 ± 0.013 |
| ATTTTAAACG | 0.979 ± 0.021 |
| ATTTTAAATT | 1 ± 0.019 |
| ATTTTAAGAG | 1.01 ± 0.02 |
| ATTTTAATTT | 1.01 ± 0.015 |
| ATTTTAGGTC | 0.989 ± 0.025 |

| Sequence | switch fluorescence ratio |
| --- | --- |
| ATTTTAGT | 1.01 ± 0.038 |
| ATTTTATGCG | 0.985 ± 0.023 |
| ATTTTCAATG | 1 ± 0.018 |
| ATTTTCGACA | 1.022 ± 0.0028 |
| ATTTTCGGGT | 0.9766 ± 0.0023 |
| ATTTTCTGTA | 1.0017 ± 0.00088 |
| ATTTTGAATG | 0.979 ± 0.05 |
| ATTTTGCAGG | 0.997 ± 0.046 |
| ATTTTGCCTT | 1 ± 0.015 |
| ATTTTGGATG | 0.996 ± 0.025 |
| ATTTTGGGGG | 0.988 ± 0.021 |
| ATTTTGGTCG | 0.982 ± 0.082 |
| ATTTTGTATT | 0.99 ± 0.034 |
| ATTTTGTGGT | 1.01 ± 0.011 |
| ATTTTTAGAG | 1.01 ± 0.023 |
| ATTTTTATAA | 0.987 ± 0.025 |
| ATTTTTCTCA | 1.04 ± 0.062 |
| ATTTTTGAAG | 1.02 ± 0.044 |
| ATTTTTGAAT | 1.01 ± 0.029 |
| ATTTTTGGC | 1.03 ± 0.06 |
| ATTTTTGGGG | 1.006 ± 0.0088 |
| ATTTTTGTTG | 0.9883 ± 0.008 |
| ATTTTTTAGA | 0.989 ± 0.021 |
| ATTTTTTATT | 0.9923 ± 0.0097 |
| ATTTTTTTTA | 0.974 ± 0.024 |

| Sequence | switch fluorescence ratio |
| --- | --- |
| CAAAAACGTT | 1.02 ± 0.024 |
| CAAAAAGGAG | 0.994 ± 0.019 |
| CAAAACGGGG | 1.15 ± 0.18 |
| CAAAAGATGT | 1.01 ± 0.05 |
| CAAAAGCGAG | 1.014 ± 0.0055 |
| CAAAAGGAGT | 0.992 ± 0.034 |
| CAAAAGGGGG | 0.9818 ± 0.005 |
| CAAAAGTGGG | 0.9928 ± 0.0018 |
| CAAAATTGCC | 0.954 ± 0.11 |
| CAAAGAAAGA | 0.991 ± 0.032 |
| CAAAGAAAGG | 0.95 ± 0.021 |
| CAAAGAGGAT | 0.991 ± 0.022 |
| CAAAGCGCGG | 0.997 ± 0.055 |
| CAAAGGAGGT | 1.03 ± 0.096 |
| CAAAGGATGA | 0.988 ± 0.002 |
| CAAATAAGTG | 0.9842 ± 0.0088 |
| CAAATAAGTT | 1.02 ± 0.029 |
| CAAATAATGA | 0.9642 ± 0.0036 |
| CAAATAGCTA | 1.0363 ± 0.00014 |
| CAAATCGTTT | 0.985 ± 0.038 |
| CAAATGAAGT | 1.02 ± 0.018 |
| CAAATGGTTT | 1.05 ± 0.08 |
| CAAATGTAGC | 1.017 ± 0.0081 |
| CAAATGTTGG | 0.983 ± 0.026 |
| CAAATTAGGA | 0.9764 ± 0.0073 |

| Sequence | switch fluorescence ratio |
| --- | --- |
| CAAATTCTGT | 1.009 ± 0.009 |
| CAAATTGCTT | 1.01 ± 0.038 |
| CAAATTTGGC | 0.986 ± 0.027 |
| CAACAACGCG | 0.992 ± 0.02 |
| CAACAGTTTT | 1 ± 0.012 |
| CAACCGTTTC | 1.27 ± 0.028 |
| CAACGGGGCG | 0.999 ± 0.028 |
| CAACGGGTTA | 0.998 ± 0.0077 |
| CAACTACGGC | 1.09 ± 0.05 |
| CAACTTTACC | 1.16 ± 0.027 |
| CAAGAAAGTG | 0.9875 ± 0.0071 |
| CAAGACACGT | 0.977 ± 0.032 |
| CAAGAGGGGG | 0.978 ± 0.043 |
| CAAGAGTGGG | 1.01 ± 0.032 |
| CAAGATCTGT | 0.9925 ± 0.0031 |
| CAAGATTGTT | 1.02 ± 0.017 |
| CAAGCCAGTT | 0.9985 ± 0.0043 |
| CAAGCGTTTC | 1.06 ± 0.024 |
| CAAGCTTGGG | 1 ± 0.034 |
| CAAGGAATGG | 0.995 ± 0.035 |
| CAAGGACGAT | 1.004 ± 0.0015 |
| CAAGGCATTC | 1.32 ± 0.059 |
| CAAGGGGGG | 0.977 ± 0.043 |
| CAAGGGGTT | 1.02 ± 0.068 |
| CAAGGTAAAG | 0.992 ± 0.013 |

| Sequence | switch fluorescence ratio |
| --- | --- |
| CAAGGTCGTA | 1 ± 0.029 |
| CAAGTAAGCG | 1.003 ± 0.0011 |
| CAAGTACATG | 1.2 ± 0.014 |
| CAAGTAGGTC | 0.98 ± 0.061 |
| CAAGTGGTTG | 0.984 ± 0.025 |
| CAAGTGTACG | 1.01 ± 0.042 |
| CAAGTTCTGC | 0.97 ± 0.053 |
| CAAGTTGGCG | 0.995 ± 0.099 |
| CAAGTTTGC | 1.08 ± 0.017 |
| CAATAAGTTT | 1.01 ± 0.043 |
| CAATACATAT | 1.07 ± 0.023 |
| CAATAGCTAT | 1.06 ± 0.022 |
| CAATAGTGTG | 0.973 ± 0.017 |
| CAATAGTTGT | 0.996 ± 0.029 |
| CAATATATCA | 0.999 ± 0.022 |
| CAATATTAGA | 1.02 ± 0.07 |
| CAATATTTGC | 0.975 ± 0.035 |
| CAATCCATTG | 0.994 ± 0.024 |
| CAATCCTTTT | 1.01 ± 0.018 |
| CAATCTGATA | 0.99 ± 0.016 |
| CAATCTGTTA | 0.989 ± 0.027 |
| CAATGAGCCT | 1.04 ± 0.013 |
| CAATGAGCTT | 0.9907 ± 0.0087 |
| CAATGAGGAA | 1.02 ± 0.018 |
| CAATGATAGG | 0.992 ± 0.017 |

| Sequence | switch fluorescence ratio |
| --- | --- |
| CAATGATCTT | 1.02 ± 0.014 |
| CAATGATGCT | 0.935 ± 0.018 |
| CAATGATGGG | 1.0072 ± 0.00052 |
| CAATGCCGAG | 0.9895 ± 0.0045 |
| CAATGGAAGA | 0.989 ± 0.014 |
| CAATGGCGTA | 1.013 ± 0.00084 |
| CAATGGGCGA | 0.993 ± 0.011 |
| CAATGGGCTC | 1.016 ± 0.0084 |
| CAATGGGGCT | 1.02 ± 0.038 |
| CAATGGTAGT | 0.9749 ± 0.0024 |
| CAATGTAAGA | 0.989 ± 0.012 |
| CAATTAAACC | 1.05 ± 0.028 |
| CAATTACTAG | 1.01 ± 0.029 |
| CAATTGGGGG | 0.9968 ± 0.0078 |
| CAATTTCTGG | 0.973 ± 0.015 |
| CAATTTTGCT | 0.98 ± 0.019 |
| CAATTTTTAG | 1.01 ± 0.023 |
| CAATTTTTCA | 1 ± 0.069 |
| CACAAGGGCA | 1.028 ± 0.0061 |
| CACAATATCT | 1.124 ± 0.0037 |
| CACACCGGCA | 1.093 ± 0.0043 |
| CACACTCGCT | 1.01 ± 0.024 |
| CACAGTAAAC | 1.25 ± 0.11 |
| CACATAAAAG | 0.987 ± 0.027 |
| CACATCACTT | 1.43 ± 0.27 |

| Sequence | switch fluorescence ratio |
| --- | --- |
| CACCAGGGCA | 1.54 ± 0.066 |
| CACCCGTGCT | 1.09 ± 0.016 |
| CACCGGAGGG | 1.25 ± 0.4 |
| CACCTAAAAT | 1.03 ± 0.037 |
| CACCTCATAA | 1.06 ± 0.011 |
| CACCTCGGAC | 1.139 ± 0.0092 |
| CACCTCTTAC | 1.271 ± 0.0029 |
| CACCTGCCCC | 1.347 ± 0.011 |
| CACCTTTACA | 1.16 ± 0.034 |
| CACGAAAGGA | 1.07 ± 0.033 |
| CACGAGCGTT | 1.011 ± 0.0049 |
| CACGAGGGAG | 0.982 ± 0.022 |
| CACGATTACT | 1.281 ± 0.0018 |
| CACGCCTTAT | 1.034 ± 0.0043 |
| CACGGAAGGA | 1.065 ± 0.0079 |
| CACGGACCTA | 1.363 ± 0.012 |
| CACGGGCCCT | 1.02 ± 0.017 |
| CACGGGGCTT | 1.02 ± 0.021 |
| CACGGGGGAG | 1.005 ± 0.0096 |
| CACGGTTTCT | 1.09 ± 0.13 |
| CACGTCAACT | 1.32 ± 0.06 |
| CACGTCGGTA | 1.01 ± 0.015 |
| CACGTGGGAG | 1.04 ± 0.023 |
| CACGTTAGTT | 1.06 ± 0.06 |
| CACTAAATGT | 1 ± 0.035 |
